A short description of the series: soluble on expression in E. coli; label from the status in PepcDB or PDB records.
As to “GMDIINNRRSIRNYKGKKVEKEKIEKLLRAAMQAPSAGNQQPWEFIVLEDRENIDKLSNFSKYANSLKTAPLAIVLLADEEKMKISEMWEQDMAAAAENILLEAAYLDLGAVWLGAQPIEERVKNLKEMFNLKSNIKPFCVISVGYPENSENKFIDRFDAKRIHIEKY”, the “soluble on expression in E. coli” value is recorded as “soluble”.
Consider “GMDKQAILDNIHQTWQEEANAISRLPEVTSEEALVKTVEKIAECTGKIVVAGCGTSGVAAKKLVHSFNCIERPAVFLTPSDAVHGTLGVLQKEDILILISKGGNTGELLNLIPACKTKGSTLIGVTENPDSVIAKEADIFFPVSVSKEPDPFNMLATASTMAVIASFDAVIVCLMTYMNYTKEQFSVIHPGGAVGNKLLNK”, for which the “soluble on expression in E. coli” value is listed as “soluble”.
As for “GMENLGDRLEVVAELSLAPGNITLTPDGRLFLSLHQFYQPEMQVAELTQDGLIPFPPQSGNAIITFDTVLGIKSDGNGIVWMLDNGNQSKSVPKLVAWDTLNNQLSRVIYLPPPITLSNSFVNDLAVDLIHNFVYISDPAPDDKAALIRVDLQTGLAARVLQGYPGIAPEDIDLVIDGVPVQIGQPDGTVIRPHLGVNGIVLDAENEWLYLSPMHSTSMYRIKSADLSNLQLTDAELGSKIERYSEKPICDGISIDKDHNIYVGDLAHSAIGVITSADRAYKLLVTDEKLSWTDSFNFGSDGYLYFDCNQLHHSAPLNAGENISAPPYYIFRLKPLAAGIVGR”, the “soluble on expression in E. coli” value is “soluble”.
For “GMEPLKVEKFATANRGNGLRAVTPLRPGELLFRSDPLAYTVCKGSRGVVCDRCLLGKEKLMRCSQCRVAKYCSAKCQKKAWPDHKRECKCLKSCKPRYPPDSVRLLGRVVFKLMDGAPSESEKLYSFYDLESNINKLTEDRKEGLRQLVMTFQHFMREEIQDASQLPPAFDLFEAFAKVICNSFTICNAEMQEVGVGLYPSISLLNHSCDPNCSIVFNGPHLLLRAVRDIEVGEELTICYLDMLMTSEERRKQLRDQYCFECDCFRCQTQDKDADMLTGDEQVWKEVQESLKKIEELKAHWKWEQVLAMCQAIISSNSERLPDINIYQLKVLDCAMDACINLGLLEEALFYGTRTMEPYRIFFPGSHPVRGVQVMKVGKLQLHQGMFPQAMKNLRLAFDIMRVTHGREHSLIEDLILLLEECDANIRAS”, the “soluble on expression in E. coli” value is reported as “soluble”.
As for “GMEWQAEQAYNHLPPLPLDSKLAELAETLPILKACIPARAALAELKQAGELLPNQGLLINLLPLLEAQGSSEIENIVTTTDKLFQYAQEDSQADPMTKEALRYRTALYQCFTQLSNRPLCVTTALEICSTIKSVQMDVRKVPGTSLTNQATGEVIYTPPAGESVIRDLLSNWEAFLHNQDDVDPLIKMAMAHYQFEAIHPFIDGNGRTGRVLNILYLIDQQLLSAPILYLSRYIVAHKQDYYRLLLNVTTQQEWQPWIIFILNAVEQTAKWTTHKIAAARELIAHTTEYVRQQLPKIYSHELVQVIFEQPYCRIQNLVESGLAKRQTASVYLKQLCDIGVLEEVQSGKEKLFVHPKFVTLMTKDSNQFSRYAL”, the entry is “soluble”; as for “GMLTENPVLQAIRQRRSIRRYTDEAVSDEAVRLILEAGIWAPSGLNNQPCRFLVIRADDPRCDILAAHTRYGHIVRGAKVIILVFLDREAMYNEVKDHQAAGAAVQNMLLAAHALQLGAVWLGEIINQAATLLPALALDPARLSFEAAIAAGHPAQNGSSSRRPLAELLLEEPFPQPE”, “soluble”; as for “GMNDRKILVAYFSCSGVTKAVAEKLAAITGADLYEIKPEVPYTEADLDWNDKKSRSSVEMRDALSRPAISGTLFHPEKYEVLFVGFPVWWYIAPTIINTFLESYDFAGKIVVPFATSGGSGIGNCEKNLHKAYPDIVWKDGKLLNGQITRDLVTEWFEKIRL”, “soluble”.
As for “GMPHVHVSTDNSLLDIGLIHRTLSQDTDWAKDIPLALVQRAIDHSLCFGGFVDGRQVAFARVISDYATFAYLGDVFVLPEHRGRGYSKALMDAVMAHPDLQGLRRFSLATSDAHGLYARYGFTPPLFPQSLMERYVPGLYST”, the entry is “soluble”; as for “GMPKANLEIIRSTYEGSASSNAKHLAEALSEKVEWTEAEGFPYGGTYIGVEAIMENVFSRLGSEWNDYKASVNMYHEVSGKDVIIAEGMYSGVYKDTGKSFEAEFVHVWQLENGKIVKFKQYVDSHLVREAMKS”, “soluble”; as for “GMQLTSENYYSQEANKEYMSVSGYKDFAGTYGKMPCEFYGMEKLNGRWEDEKSTALLVGSYVDSYFEGSLDQFKKDNPEIFTQKGELKANFKQAEEIIARIERDEYFMKYMSGQKQVIMTGELFGAKWKIKMDSYIPGVAIVDLKVMASITDLKWVKDIGYLDFVRYWGYDIQGAVYQEIVRQNTGEKLPFFIAGATKQTEPDIRIIHVTDNYLQEALHMVEMNMPRILRVKNGEVEPDRCELCDCCRHNRVLKKPISIMDLTAGI”, “soluble”.
The value for “GMSDPRTQPLEIRPLMISRVMEVDWADGHTSRLTFEHLRVECPCAECKGHTPDQAQIVTGKEHVSVVEVVPVGHYAVQLHFSDGHNTGIFTWEYLRRLDAE” was “soluble”.
“GMSDTVLTGLLDTVWQQFGRGTKDRHHPARHPTLATIGTDGPDLRTLVLRAASHAEATLEFHTDAASPKVAHIRRDARVAIHIWIPKASLQVRAKAIAKILPGDPNLFAQLPEAARMNYQGPVPGTPLPAEPDATPNRFTRLICHLSEIDVLHLTTPHQRAVYTAPDWRGIWVSP”: the “soluble on expression in E. coli” value was “soluble”.
In the case of “GMSNKKLIINADDFGYTPAVTQGIIEAHKRGVVTSTTALPTSPYFLEAMESARISAPTLAIGVHLTLTLNQAKPILPREMVPSLVDEAGYFWHQSIFEEKVNLEEVYNEWDAQIISFMKSGRRPDHIDSHHNVHGKNKKLLGVALALARKYQLPLRNASRSIETKDYLELYQDVRTPDEMLYQFYDKAISTETILQLLDMVVCSEGEVFEINCHPAFIDTILQNQSGYCMPRIREVEILTSQEVKEAIEERGILLANYESLAM”, the “soluble on expression in E. coli” value is reported as “soluble”.
The value for “GMSQRIGVIDMGTNTFHLLITDIVNDRPHTLVNEKSAVGLGKGGITKGFITEEAMDRALDTLKKFRVILDEHAVVHVIATGTSAVRSGSNKQVLIDRIKKEVNIDVEVIDGAREAELIFRGVQQAVPMEDHISLAMDIGGGSVEFIIGNKNEILWKQSFEIGGQRLIDRFHVHDPMREDDRVMMHNYFDEVLVPLEKAINTWRPTQLIGCSGTFDTLAEMNIQHHREKIALEKQTSYLLSLPDFNRLRKQLVASTRRERLAIAGMIELRADMVVVAICLIEHVLKLVSTNAITVSTYSLKEGVLYTMLDGVKVGS” was “soluble”; that for “GMTKPKEPTALDLPMADPLPDETQKYFEICQEKLGMVPNVLKAYAFNVEKLNAFTAMYNDLMLGESQLSKLEREMIAVVVSSINKCFYCLVAHGAAVRQLSGDPQLGEMLVMNYRVAPLDARQRVMLDFAAKMTRASAEIEEADREVLRSHGFNDRDIWDIANVTGFFNMTNRVASATAMMPNAEYHGQFR” was “soluble”; that for “GMTTEVKQSPRERLLEAAAALTYRDGVGIGVEALCKAAGVSKRSMYQLFESKDELLAASLKERSAAFVAKALPPADDGRSPRERILYVFERVESQAGAPDFQGCRYLAVQIELKDQAHPASRVAYQIKADLMAFFRSEAERGGASDPDLLARQLILVFDGASARAGIGADNLTGLIVPTLTTLLDAADMH” was “soluble”.
As for “GMTTKDISRPVCILGLGLIGGSLLRDLHAANHSVFGYNRSRSGAKSAVDEGFDVSADLEATLQRAAAEDALIVLAVPMTAIDSLLDAVHTHAPNNGFTDVVSVKTAVYDAVKARNMQHRYVGSHPMAGTANSGWSASMDGLFKRAVWVVTFDQLFDGTDINSTWISIWKDVVQMALAVGAEVVPSRVGPHDAAAARVSHLTHILAETLAIVGDNGGALSLSLAAGSYRDSTRVAGTDPGLVRAMCESNAGPLVKALDEALAILHEAREGLTAEQPNIEQLADNGYRSRIRYEARSGQRRAKESVSPTITSSRPVLRLHPGTPNWEKQLIHAETLGARIEVF”, the entry is “soluble”.
The value for “GMTTTQPEAKDRISSLPVPDATQVPEGVRKLWAKAEANIGFVPNVFRAQAVNGEQFLAWWNYFNLLLNKEGYLTNAERELVAVVVSGVNRCLYCAVSHGAALREFLGDPQKADAVAVNWRHADLTEREQALAAYAEKLTRHPAEVTAADLEPLRAVGLDDHQIMELVQVIGMFNLTNRVSSALGFVPNPEYYRQAR” was “soluble”; that for “GMYANKVKKIAAVHDLSGMGRVSLTVVIPILSSMGFQVCPLPTAVLSNHTQYPGFSFLDLTDEMPKIIAEWKKLEVQFDAIYTGYLGSPRQIQIVSDFIKDFRQPDSLIVADPVLGDNGRLYTNFDMEMVKEMRHLITKADVITPNLTELFYLLDEPYKADSTDEELKEYLRLLSDKGPQVVIITSVPVHDEPHKTSVYAYNRQGNRYWKVTCPYLPAHYPGTGDTFTSVITGSLMQGDSLPMALDRATQFILQGIRATFGYEYDNREGILLEKVLHNLDMPIQMASYELI” was “soluble”.
For “GNDEIGELALAFNNLSKRVQEAQANTESEKRRLDSVITHMSDGIIATDRRGRIRIVNDMALKMLGMAKEDIIGYYMLSVLSLEDEFKLEEIQENNDSFLLDLNEEEGLIARVNFSTIVQETGFVTGYIAVLHD”, the “soluble on expression in E. coli” value is listed as “not soluble”.
Turning to “GNHHHHHMMLIKKIEELKNSEIKDIIDKRIQEFKSFKNKSNEEWFKELCFCILTANFTAEGGIRIQKEIGDGFLTLPREELEEKLKNLGHRFYRKRAEYIVLARRFKNIKDIVESFENEKVAREFLVRNIKGIGYKEASHFLRNVGYDDVAIIDRHILRELYENNYIDEIPKTLSRRKYLEIENILRDIGEEVNLKLSELDLYIWYLRTGKVLK”, the “soluble on expression in E. coli” value was “soluble”.
As to “GNIATTPGDVVYRNRMMELIQYKPATDTVHEIPIVLFPPWINKFYILDLKAQNSFIKWVTEQGFTIFVVSWINPDASYADVGMEDYIQDGFLTAIDEVKKICKVKQVNAVGYCIAGTTLSLTLSLMKQTGDKSVKSATFFTALTDFSDQGEFTPFLQDDFIDGIEEEVTREGVLRSWIMARTFSYLRSNDLIYKPAIQSYMLGETPPAFDLLYWNGDGANLPAKMAVQYLRGLCQRNEFAGEGFDLMGHTLHVRDVDVPVMAITCETDHIAAWKDCYRGVQKMGSRSKTFVVSESGHIAGIVNPPSKKKYGHYTNPDLKDD”, the “soluble on expression in E. coli” value is given as “not soluble”.
The value for “GPGSMAALAALEKEVADLKRVRVFNETVRTGVERVLASLPSPENEKDTSTKVRILLLRSQATLLLPRVSREAEKDLNAALKLQPGSATTWVELSECLLRRNAFKEACDALDNALRVNPAHTEALCKYSQIQRNRCGGEGVTADQRKAYLEDAVAKARAAVGSNVDDADAWNTLALSLLSKVTLEGMTFDGVRKALAAMQQAERKCPEDPDVPYNKAVLESLLGHFGAAAMDYWRAHALDKDRLKGTRHLSEENAKVLLRAQSRMRTSSGIGKRDFQRICTRIEQAHKKYTQSTSAKVVGVLDIVTEPTMQPVTLLVSDGKGDFVLLLLHEVRPTCFKIGDVIAYPVTTPVETITHNIVACPGVEEEPLKLTLSHAYPNPKSILVNGQPLPSSAHVPLQMSSRLFA” was “soluble”; that for “GPGSMAVAAAAAAQTVAPRPPMQIGRADIAQMVASNPHVPTFSLPMNRQLEREFRTFRPVLIIAPLSTLPHWASEFQRFSRRHTAAAVSPCPGGVDAAERFTVYVLNGPRSERESRMGELLAHVERLTQQPPTPGGASGATPATPVVVIPHDMLTKPLRGALRQIRRVDWQVVAIDEAQRIKCARSFLFKKVCGLHSVSRRVLTGHTVADQHDGALPCSCAFRHRTRSSRVSCLSSWIAHCSPQVGRARWRIASCASSCAAVLIDFRCRSSCGVRGAS” was “soluble”.
